Source: US20180030136A1 (GlaxoSmithKline, published 2018)

T1: human ICOS on cells (human, UniProt Q9Y6W8 21-167)
T1 sequence: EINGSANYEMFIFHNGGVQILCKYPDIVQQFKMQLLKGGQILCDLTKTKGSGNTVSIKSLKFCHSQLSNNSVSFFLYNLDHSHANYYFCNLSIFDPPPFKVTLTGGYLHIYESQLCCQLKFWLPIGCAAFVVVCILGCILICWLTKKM


Key:
cynomolgus ICOS = molecular target: T2, cynomolgus ICOS (cynomolgus); test: Biacore, cyno ICOS
T2 construct: also called cyno ICOS; Biacore cyno

Cyno ICOS-Fc = molecular target: T3, Cyno ICOS-Fc (cynomolgus; rabbit); test: BIAcore T200, antibody captured on anti-human IgG, ICOS (rabbit Fc) as analyte, 25 C, 1:1 model
T3 construct: also called cyno ICOS (rabbit Fc)
Procedure: The binding kinetics affinity of the humanized H2L5 hIgG4PE antibody was determined used the BIAcore T200Anti-human IgG on Fc2 of a CM5 chip Anti-ICOS H2L5 hIgG4PE captured on the surface. Anti-human IgG surface blocked with 0.1 mg/mL hIgG1 control to prevent non-specific binding of rabbit Fc. Human and cyno ICOS (rabbit Fc) passed over the captured antibodies at 256 nM, 64 nM, 16 nM, 4 nM and 1 nM. Buffer alone was used to double reference binding curves. MgCl₂ was used to regenerate surface. Run carried out at 25° C. Data fitted to 1:1 model using T200 evaluation software. Antibody concentration: 2.5 μg/mL
The ICOS binding data was fitted to a 1:1 kinetics model using the T200 data analysis software.

human ICOS on cells = molecular target: T1, human ICOS on cells; test: cell-based or functional assay

Kd (cynomolgus ICOS) [nM]	Kd (Cyno ICOS-Fc) [nM]	koff (Cyno ICOS-Fc) [s⁻¹]	kon (Cyno ICOS-Fc) [M⁻¹ s⁻¹]	EC50 CD8+OX40+, donor 1149M52, 24 hr (human ICOS on cells) [µg/mL]	EC50 IFN-γ, donor 1136F50, 48 hr (human ICOS on cells) [µg/mL]	Binder
4.46	–	–	–	–	–	ICOS mAb clone 422.2 (antibody, V domains shown, murine hybridoma mAb) VH: QVQLQQSGPELVRPGESVKISCMGSGYTFTDYAMHWVKQSHAKSLEWIGLISIYSDHTNYNQKFQGKATMTVDKSSSTAYMELARLTSEDSAIYYCGRNNYGNYGWYFDVWGAGTTVTVSS VL: ENVLTQSPAIMSASPGEKVTMTCSASSSVSYMHWYQQKSITSPKLWIYDTSKLASGVPGRFSGSGSGNSYSLTISSMEAEDVATYYCFQGSGYPYTFGGGTKLEIKR
23	–	–	–	–	–	ICOS mAb clone 88.2 (antibody, V domains shown, murine anti-human ICOS mAb) VH: QVQLQQPGAELVRPGASVKLSCKASGYSFTSYWINWVKQRPGQGLEWIGNIYPSDSYTNYNQMFKDKATLTVDKSSNTAYMQLTSPTSEDSAVYYCTRWNLSYYFDNNYYLDYWGQGTTLTVSS VL: QAVVTQESALTTSPGETVTLTCRSSTGAVTTSNYANWVQEKPDHLFTGLIGGTNNRAPGVPARFSGSLIGDKAALTITGAQTEDEAIYFCALWYNNHLVFGGGTKLTVL
–	0.949	0.000371	391000	1.5	1.5	H2L5 hIgG4PE (antibody, also called H2L5 IgG4PE; copies: 2 + 2) heavy: not shown light: EIVLTQSPATLSLSPGERATLSCSASSSVSYMHWYQQKPGQAPRLLIYDTSKLASGIPARFSGSGSGTDYTLTISSLEPEDFAVYYCFQGSGYPYTFGQGTKLEIKRTVAAPSVFIFPPSDEQLKSGTASVVCLLNNFYPREAKVQWKVDNALQSGNSQESVTEQDSKDSTYSLSSTLTLSKADYEKHKVYACEVTHQGLSSPVTKSFNRGEC
